B1: mRNA-splicing (parent)
chain: AGUUGCUGCUGGGAGCUCCAGCACAGUGAAAUGGACAGAAGGGCAGAGCAA

Variants of: B1
Assay: exon inclusion enrichment index; higher = more inclusion; WT1 exon 5 minigene, HEK293

First: G5C C6U G8C C9U U10C G15C C16U
Second: G2U U3A G5U G8U C9U
The “exon inclusion enrichment index” value of the first is higher: 1.9 for the first, 0.51 for the second.

Compared with C6A U7C C9A U10C G41C G42U, G42A G43A is lower in “exon inclusion enrichment index” value: 3.52 for the first, 1.43 for the second.

First: G5C C6G U7C C9A U10C
Second: G5A C6G U7G C9A G28U A29U
The “exon inclusion enrichment index” value of the first is higher: 4 for the first, 0.000755 for the second.

Compared with G5U C6G U7A G8U C9U, C6A U7A G8A C9U U10A is lower in “exon inclusion enrichment index” value: 0.198 for the first, 0.0156 for the second.

First: G5A U7C G8A U10C A47C
Second: G5U G8U C9G
The “exon inclusion enrichment index” value of the first is higher: 2.83 for the first, 0.267 for the second.

First: C6A U7A C9A U10A G21C C22U
Second: G5C C6G U7C U10C G41U G42A
The “exon inclusion enrichment index” value of the first is lower: 0.813 for the first, 1.45 for the second.

Going from C6A U7C C9A U10C U27G G28U to C6A U7C C9A U10C C24U A25U, the “exon inclusion enrichment index” value rises from 0.0137 to 2.88.

Going from G5C C6A U7C G8A U10A A20C G21A to C6A U7A C9A U10A A35U C36A, the “exon inclusion enrichment index” value falls from 0.0158 to 0.00157.

Compared with G5C C6U G8C C9U U10C A31U U32G, U7G G8C is higher in “exon inclusion enrichment index” value: 1.04 for the first, 2.05 for the second.

First: G5C C6G U7C U10C C19U
Second: G5C C6G U7C C9G U10C
The “exon inclusion enrichment index” value of the first is lower: 0.492 for the first, 2.62 for the second.

First: G5A C6U U7A G8U C9A G43C C44U
Second: G5U G8U C9U A31U U32G
The “exon inclusion enrichment index” value of the first is lower: 0.033 for the first, 0.0359 for the second.

Going from G5A C6U U7A G8U C9A C22U to G5C C6G U7C U10C A29G A30G, the “exon inclusion enrichment index” value rises from 0.0424 to 3.01.

Compared with G5C C6A U7C G8A U10A G38U A39G, G5A C6U U7A G8U C9A A47U G48C is higher in “exon inclusion enrichment index” value: 0.0343 for the first, 0.0371 for the second.

Compared with U3G G5A C6U U7A G8U C9A, C6A U7A C9A U10A G11C is higher in “exon inclusion enrichment index” value: 0.0113 for the first, 3.21 for the second.

Compared with G5A U7C G8A U10C G41U G42U, G5A U7C G8A U10C A14U G15U is lower in “exon inclusion enrichment index” value: 1.9 for the first, 0.953 for the second.

Going from G5A U7C G8A U10C A20G to C6A U7A C9A U10A C22A, the “exon inclusion enrichment index” value falls from 2.79 to 0.593.

First: C6A U7A C9A U10A U27G G28A
Second: G5C C6A U7C G8A U10A G38U
The “exon inclusion enrichment index” value of the first is higher: 0.869 for the first, 0.0342 for the second.

Compared with U10A G11U, U10A G11A is lower in “exon inclusion enrichment index” value: 2.73 for the first, 2.02 for the second.

First: G5C C6A U7C G8A U10A A35U C36A
Second: G5U G8U C9U G28A A29G
The “exon inclusion enrichment index” value of the first is lower: 0.00105 for the first, 0.0263 for the second.

Going from C6A U7A C9A U10A G11C G12A to C6A U7C C9A U10C G38C A39G, the “exon inclusion enrichment index” value rises from 1.98 to 2.65.

First: G5A C6G U7G C9A G46U A47C
Second: G5A U7G G8C U10C
The “exon inclusion enrichment index” value of the first is lower: 0.0165 for the first, 2.13 for the second.

Compared with G5C C6U G8C C9U U10C A29U, G5C C6A U7C G8A U10A A25U G26U is lower in “exon inclusion enrichment index” value: 0.63 for the first, 0.111 for the second.

Going from G5A U7C G8A U10C A20C G21C to G5A C6U U7A G8U C9A G38C A39G, the “exon inclusion enrichment index” value falls from 0.722 to 0.115.

Compared with G5C C6G U7C U10C U27G, U4C G5U C6G U7C U10C is higher in “exon inclusion enrichment index” value: 2.02 for the first, 4.01 for the second.

Going from G5A U7C G8A U10C G41C G42U to G34C A35G, the “exon inclusion enrichment index” value falls from 3.05 to 0.0695.

Going from G5C C6A U10C to C6G C9A U10A, the “exon inclusion enrichment index” value falls from 1.97 to 0.229.

Going from C6A U7C C9G U10A to G5A U7C G8A U10C A47U G48A, the “exon inclusion enrichment index” value rises from 1.39 to 1.85.

Compared with G5A U7C G8A U10C A31U U32C, G2C G5C C6A U7C G8A U10A is lower in “exon inclusion enrichment index” value: 3.11 for the first, 0.0904 for the second.

First: G5A C6G U7G C9A C22G A23C
Second: G5U G8U C9U C44A A45U
The “exon inclusion enrichment index” value of the first is lower: 0.000809 for the first, 0.41 for the second.

Compared with G5C C6G U7C C9U U10C, G5U G8U C9U A30U A31U is lower in “exon inclusion enrichment index” value: 3.88 for the first, 0.0523 for the second.

First: G5C C6A U7C G8A U10A G33C G34U
Second: C6A U7C C9A U10C U32A
The “exon inclusion enrichment index” value of the first is lower: 0.0659 for the first, 3.06 for the second.

Going from G5C C6G U7C U10C G13C A14C to G5A C6U U7A G8U C9A U27C G28A, the “exon inclusion enrichment index” value falls from 1.79 to 0.0919.

Going from G5U G8U C9U C22U A23G to G15A C16G, the “exon inclusion enrichment index” value falls from 0.109 to 0.0571.

First: C6A U7A C9A U10A U17G C18U
Second: U17G C18U
The “exon inclusion enrichment index” value of the first is lower: 0.46 for the first, 1.5 for the second.

Compared with C6A U7C C9A U10C C19G A20U, C6A U7A C9A U10A C24U A25C is lower in “exon inclusion enrichment index” value: 3.25 for the first, 2.5 for the second.

Compared with C6A U7A C9A U10A C24U A25U, G12A G13A is higher in “exon inclusion enrichment index” value: 0.761 for the first, 1.29 for the second.

Compared with G5A U7C G8A U10C C24G A25G, G5A C6G U7G C9A A14C is lower in “exon inclusion enrichment index” value: 1.35 for the first, 0.000759 for the second.

Going from C6A U7C C9A U10C A31U U32A to C6A U7A C9A U10A A29G A30C, the “exon inclusion enrichment index” value falls from 0.902 to 0.273.

Compared with C6A U7C C9A U10C C18G C19G, C6A U7A C9A U10A G13A is lower in “exon inclusion enrichment index” value: 3.85 for the first, 1.97 for the second.

Compared with G5A U7C G8C C9G U10C, G5C C6U G8C C9U U10C C22A is lower in “exon inclusion enrichment index” value: 1.58 for the first, 1.57 for the second.

Going from U4C G5C to G5C C6A U7C G8A U10A G11A G12U, the “exon inclusion enrichment index” value falls from 0.153 to 0.0692.

For C6A U7A C9A U10A C18A C19A, the “exon inclusion enrichment index” value was 0.0959.

From the RNAGym collection of RNA variant scans (doi:10.1101/gr.219683.116)
